Laboratory results: publication PMC11711097 (Nature, 2024)
Residue numbers refer to the chain shown, from its start. Numbers in names are those of the source.

Columns and labels:
[1] = target: the molecule itself; test: cross-linking
[2] = target: the molecule itself; test: cryo-EM structure
[3] = target: Full-length mouse NINJ1(K45Q) (mouse, UniProt O70131, K45Q); test: SPR

B1: Endogenous NINJ1 of mouse bone marrow-derived macrophages (natural protein)
chain: MESGTEEYELNGDLRPGSPGSPDALPPRWGLRNRPINVNHYANKKSAAESMLDIALLMANASQLKAVVEQGNDFAFFVPLVVLISISLVLQIGVGVLLIFLVKYDLNNPAKHAKLDFLNNLATGLVFIIVVVNIFITAFGVQKPVMDVAPRQ
stoichiometry N [1]: 2 subunits

B2: Full-length mouse NINJ1(K45Q) (natural protein)
chain: B1 chain with K45Q
stoichiometry N [2]: 4 subunits

B3: Nb538 (His-tagged, purified) (VHH)
VHH: EVQLVESGGGLVQPGGSLRLSCAASGFNVYSSSYYYVGWVRRAPGKGEELVARISPSYGYTYYADSVKGRFTISADTSKNTAYLQMNSLRAEDTAVYYCEVYIFGQYFESGQGTLVTVSS
Kd [3]: 0.024 µM
